To fix the notation:
B1: BAK (UniProt:Q16611, residues 16–185, C166S) (domain or fragment)
chain: EPALPSASEEQVAQDTEEVFRSYVFYRHQQEQEAEGVAAPADPEMVTLPLQPSSTMGQVGRQLAIIGDDINRRYDSEFQTMLQHLQPTAENAYEYFTKIATSLFESGINWGRVVALLGFGYRLALHVYQHGLTGFLGQVTRFVVDFMLHHSIARWIAQRGGWVAALNLGN
B2: MCL-1 (UniProt:Q07820, residues 168–327, C286S) (domain or fragment)
chain: GSEEEEDELYRQSLEIISRYLREQATGAKDTKPMGRSGATSRKALETLRRVGDGVQRNHETAFQGMLRKLDIKNEDDVKSLSRVMIHVFSDGVTNWGRIVTLISFGAFVAKHLKTINQESSIEPLAESITDVLVRTKRDWLVKQRGWDGFVEFFHVEDLEGG

Common to all, as to assay: without detergent
Assay [1] concerns the target B1.
In the next assay the target is BAXBH3.
The next assay deals with MCL-1BH3.
The target in assay [2] is B2.
Assay [3] concerns the target B1. This is another data set of the same source.
For assay [4], the target named is B2. The source holds these as a separate data set.

Here are results for five molecules from doi:10.1101/756874 (2019).

No end group written: not given here. *: point of attachment. TAMRA = 5-carboxytetramethylrhodamine, CN(C)c1ccc2c(-c3ccc(C(=O)*)cc3C(=O)[O-])c3ccc(=[N+](C)C)cc-3oc2c1

As usually defined, the Kd is the equilibrium constant for the complex coming apart. The low end stands for a tighter complex, the high end for a looser complex. In assay [1], {TAMRA}-ALQPSSTMGQVGRQLAIIGDDINRRYDSEFQTMLQ [BAKBH3, TAMRA-labelled 35-residue peptide (UniProt:Q16611, residues 64–98, P64A)] had a Kd of 1000 µM.
As to B1, the figures for the Kd with BAXBH3 and in the assay with MCL-1BH3 were 500 µM and 5000 µM, respectively.
For orientation: koff means a measure of how fast the partners let go of each other. Higher therefore signals a short-lived complex. For the molecule {TAMRA}-RGEEEQWAREIGAQLRRAADDLNAQYERRRQEEQQ [PUMABH3, TAMRA-labelled 35-residue peptide (UniProt: Q9BXH1, residues 127–161, M144A)], the koff was found to be 0.00246 s⁻¹ in assay [2] and 230 s⁻¹ in assay [3]. Besides, the Kd in assay [4] was found to be 0.000174 µM; in assay [1], 220 µM.
In the assay with BAXBH3, B2 had a Kd of 0.071 µM and a koff of 0.613 s⁻¹. In the assay with MCL-1BH3, this molecule came in with a Kd of 0.182 µM and a koff of 0.52 s⁻¹.
The molecule {TAMRA}-SESQEDIIRNIARHLAQVGDSMDRSIPPGLVNGLA [BIDBH3, TAMRA-labelled 35-residue peptide (UniProt:P55957, residues 76–110)] showed a koff in assay [3] of 1400 s⁻¹. In assay [1], the Kd stood at 230 µM.
